Laboratory results from the supplement of paper PMC5998384.

Legend:
HeLa Kyoto [1] = assay: solubility in G1/S (NP-40 vs SDS abundance) (log2 ratio); higher = more soluble; conditions: cell cycle stage: G1/S
HeLa Kyoto [2] = assay: melting temperature (median over replicates), in situ; higher = more thermally stable
HeLa Kyoto [3] = assay: solubility change mitosis vs G1/S (difference of NP-40 vs SDS log2 ratios) (log2 ratio difference); higher = more soluble in mitosis
HeLa Kyoto [4] = assay: thermal stability score vs G1/S (z-score of summed log2 fold changes over temperatures); higher = more thermally stable than in G1/S
[5] = cell cycle stage: early G1 (4.5 h after nocodazole release)
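For melting temperature (median over replicates), in situ in this document: HeLa Kyoto cells synchronized by double thymidine or nocodazole block, proteins quantified by TMT10plex mass spectrometry, three independent biological replicates.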
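For solubility change mitosis vs G1/S (difference of NP-40 vs SDS log2 ratios) in this document: synchronized HeLa Kyoto cells (double thymidine block for G1/S, nocodazole release for mitosis), protein amounts in NP-40 versus SDS lysates quantified by mass spectrometry, three biological replicates.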
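For solubility in G1/S (NP-40 vs SDS abundance) in this document: HeLa Kyoto cells arrested at G1/S by double thymidine block, proteins quantified by TMT10plex mass spectrometry in mild NP-40 versus SDS extracts, three biological replicates.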
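For thermal stability score vs G1/S (z-score of summed log2 fold changes over temperatures) in this document: synchronized HeLa Kyoto cells, proteins quantified by TMT10plex mass spectrometry, three biological replicates, mitosis taken 0.5 h after nocodazole release, G1/S directly after double thymidine block.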

Sequence	solubility in G1/S (log2) (HeLa Kyoto [1])	melting temperature (HeLa Kyoto [2]; cell cycle stage: G1/S)	melting temperature (HeLa Kyoto [2]; cell cycle stage: mitosis)	solubility change mitosis (log2) (HeLa Kyoto [3])	thermal stability score (HeLa Kyoto [4]; [5])	thermal stability score (HeLa Kyoto [4]; cell cycle stage: mitosis)
MRSAAKPWNPAIRAGGHGPDRVRPLPAASSGMKSSKSSTSLAFESRLSRLKRASSEDTLNKPGSTAASGVVRLKKTATAGAISELTESRLRSGTGAFTTTKRTGIPAPREFSVTVSRERSVPRGPSNPRKSVSSPTSSNTPTPTKHLRTPSTKPKQENEGGEKAALESQVRELLAEAKAKDSEINRLRSELKKYKEKRTLNAEGTDALGPNVDGTSVSPGDTEPMIRALEEKNKNFQKELSDLEEENRVLKEKLIYLEHSPNSEGAASHTGDSSCPTSITQESSFGSPTGNQMSSDIDEYKKNIHGNALRTSGSSSSDVTKASLSPDASDFEHITAETPSRPLSSTSNPFKSSKCSTAGSSPNSVSELSLASLTEKIQKMEENHHSTAEELQATLQELSDQQQMVQELTAENEKLVDEKTILETSFHQHRERAEQLSQENEKLMNLLQERVKNEEPTTQEGKIIELEQKCTGILEQGRFEREKLLNIQQQLTCSLRKVEEENQGALEMIKRLKEENEKLNEFLELERHNNNMMAKTLEECRVTLEGLKMENGSLKSHLQGEKQKATEASAVEQTAESCEVQEMLKVARAEKDLLELSCNELRQELLKANGEIKHVSSLLAKVEKDYSYLKEICDHQAEQLSRTSLKLQEKASESDAEIKDMKETIFELEDQVEQHRAVKLHNNQLISELESSVIKLEEQKSDLERQLKTLTKQMKEETEEWRRFQADLQTAVVVANDIKCEAQQELRTVKRKLLEEEEKNARLQKELGDVQGHGRVVTSRAAPPPVDEEPESSEVDAAGRWPGVCVSRTSPTPPESATTVKSLIKSFDLGRPGGAGQNISVHKTPRSPLSGIPVRTAPAAAVSPMQRHSTYSSVRPASRGVTQRLDLPDLPLSDILKGRTETLKPDPHLRKSPSLESLSRPPSLGFGDTRLLSASTRAWKPQSKLSVERKDPLAALAREYGGSKRNALLKWCQKKTQGYANIDITNFSSSWSDGLAFCALLHTYLPAHIPYQELNSQEKKRNLLLAFEAAESVGIKPSLELSEMLYTDRPDWQSVMQYVAQIYKYFET [SPECC1]	0.148	52.2 °C	51.5 °C	-0.147	-1.45	-1.95
MRSGGRGRPRLRLGERGLMEPLLPPKRRLLPRVRLLPLLLALAVGSAFYTIWSGWHRRTEELPLGRELRVPLIGSLPEARLRRVVGQLDPQRLWSTYLRPLLVVRTPGSPGNLQVRKFLEATLRSLTAGWHVELDPFTASTPLGPVDFGNVVATLDPRAARHLTLACHYDSKLFPPGSTPFVGATDSAVPCALLLELAQALDLELSRAKKQAAPVTLQLLFLDGEEALKEWGPKDSLYGSRHLAQLMESIPHSPGPTRIQAIELFMLLDLLGAPNPTFYSHFPRTVRWFHRLRSIEKRLHRLNLLQSHPQEVMYFQPGEPFGSVEDDHIPFLRRGVPVLHLISTPFPAVWHTPADTEVNLHPPTVHNLCRILAVFLAEYLGL [QPCTL]	-0.29	51.9 °C	52.7 °C	0.00122	3.48	4.18
MRSIRSFANDDRHVMVKHSTIYPSPEELEAVQNMVSTVECALKHVSDWLDETNKGTKTEGETEVKKDEAGENYSKDQGGRTLCGVMRIGLVAKGLLIKDDMDLELVLMCKDKPTETLLNTVKDNLPIQIQKLTEEKYQVEQCVNEASIIIRNTKEPTLTLKVILTSPLIRDELEKKDGENVSMKDPPDLLDRQKCLNALASLRHAKWFQARANGLKSCVIVLRILRDLCNRVPTWAPLKGWPLELICEKSIGTCNRPLGAGEALRRVMECLASGILLPGGPGLHDPCERDPTDALSYMTIQQKEDITHSAQHALRLSAFGQIYKVLEMDPLPSSKPFQKYSWSVTDKEGAGSSALKRPFEDGLGDDKDPNKKMKRNLRKILDSKAIDLMNALMRLNQIRPGLQYKLLSQSGPVHAPVFTMSVDVDGTTYEASGPSKKTAKLHVAVKVLQAMGYPTGFDADIECMSSDEKSDNESKNETVSSNSSNNTGNSTTETSSTLEVRTQGPILTASGKNPVMELNEKRRGLKYELISETGGSHDKRFVMEVEVDGQKFRGAGPNKKVAKASAALAALEKLFSGPNAANNKKKKIIPQAKGVVNTAVSAAVQAVRGRGRGTLTRGAFVGATAAPGYIAPGYGTPYGYSTAAPAYGLPKRMVLLPVMKFPTYPVPHYSFF [STRBP]	-0.314	50.5 °C	52.5 °C	-0.0522	-0.506	-0.00226
MRSRVAVRACHKVCRCLLSGFGGRVDAGQPELLTERSSPKGGHVKSHAELEGNGEHPEAPGSGEGSEALLEICQRRHFLSGSKQQLSRDSLLSGCHPGFGPLGVELRKNLAAEWWTSVVVFREQVFPVDALHHKPGPLLPGDSAFRLVSAETLREILQDKELSKEQLVAFLENVLKTSGKLRENLLHGALEHYVNCLDLVNKRLPYGLAQIGVCFHPVFDTKQIRNGVKSIGEKTEASLVWFTPPRTSNQWLDFWLRHRLQWWRKFAMSPSNFSSSDCQDEEGRKGNKLYYNFPWGKELIETLWNLGDHELLHMYPGNVSKLHGRDGRKNVVPCVLSVNGDLDRGMLAYLYDSFQLTENSFTRKKNLHRKVLKLHPCLAPIKVALDVGRGPTLELRQVCQGLFNELLENGISVWPGYLETMQSSLEQLYSKYDEMSILFTVLVTETTLENGLIHLRSRDTTMKEMMHISKLKDFLIKYISSAKNV [POLG2]	-0.0655	–	54.6 °C	0.206	0.753	1.26
MRTDSGARLEEGHLRPPRALPPVPSQDDIPLSRPKKKKPRTKNTPASASLEGLAQTAGRRPSEGNEPSTKELKEHPEAPVQRRQKKTRLPLELETSSTQKKSSSSSLLRNENGIDAEPAEEAVIQKPRRKTKKTQPAELQYANELGVEDEDIITDEQTTVEQQSVFTAPTGISQPVGKVFVEKSRRFQAADRSELIKTTENIDVSMDVKPSWTTRDVALTVHRAFRMIGLFSHGFLAGCAVWNIVVIYVLAGDQLSNLSNLLQQYKTLAYPFQSLLYLLLALSTISAFDRIDFAKISVAIRNFLALDPTALASFLYFTALILSLSQQMTSDRIHLYTPSSVNGSLWEAGIEEQILQPWIVVNLVVALLVGLSWLFLSYRPGMDLSEELMFSSEVEEYPDKEKEIKASS [TMEM237]	-0.0506	54.9 °C	55.4 °C	-0.0698	-4.81	-5.57
MSAEVKVTGQNQEQFLLLAKSAKGAALATLIHQVLEAPGVYVFGELLDMPNVRELAESDFASTFRLLTVFAYGTYADYLAEARNLPPLTEAQKNKLRHLSVVTLAAKVKCIPYAVLLEALALRNVRQLEDLVIEAVYADVLRGSLDQRNQRLEVDYSIGRDIQRQDLSAIARTLQEWCVGCEVVLSGIEEQVSRANQHKEQQLGLKQQIESEVANLKKTIKVTTAAAAAATSQDPEQHLTELREPAPGTNQRQPSKKASKGKGLRGSAKIWSKSN [COPS7A]	0.458	53.9 °C	54 °C	0.216	-1.47	-1.53
MSAFDTNPFADPVDVNPFQDPSVTQLTNAPQGGLAEFNPFSETNAATTVPVTQLPGSSQPAVLQPSVEPTQPTPQAVVSAAQAGLLRQQEELDRKAAELERKERELQNTVANLHVRQNNWPPLPSWCPVKPCFYQDFSTEIPADYQRICKMLYYLWMLHSVTLFLNLLACLAWFSGNSSKGVDFGLSILWFLIFTPCAFLCWYRPIYKAFRSDNSFSFFVFFFVFFCQIGIYIIQLVGIPGLGDSGWIAALSTLDNHSLAISVIMMVVAGFFTLCAVLSVFLLQRVHSLYRRTGASFQQAQEEFSQGIFSSRTFHRAASSAAQGAFQGN [SCAMP2]	0.177	58.4 °C	56.6 °C	-0.103	-1.72	-3.07
MSAPDEGRRDPPKPKGKTLGSFFGSLPGFSSARNLVANAHSSARARPAADPTGAPAAEAAQPQAQVAAHPEQTAPWTEKELQPSEKMVSGAKDLVCSKMSRAKDAVSSGVASVVDVAKGVVQGGLDTTRSALTGTKEVVSSGVTGAMDMAKGAVQGGLDTSKAVLTGTKDTVSTGLTGAVNVAKGTVQAGVDTTKTVLTGTKDTVTTGVMGAVNLAKGTVQTGVETSKAVLTGTKDAVSTGLTGAVNVARGSIQTGVDTSKTVLTGTKDTVCSGVTGAMNVAKGTIQTGVDTSKTVLTGTKDTVCSGVTGAMNVAKGTIQTGVDTSKTVLTGTKDTVCSGVTGAMNVAKGTIQTGVDTTKTVLTGTKNTVCSGVTGAVNLAKEAIQGGLDTTKSMVMGTKDTMSTGLTGAANVAKGAMQTGLNTTQNIATGTKDTVCSGVTGAMNLARGTIQTGVDTTKIVLTGTKDTVCSGVTGAANVAKGAVQGGLDTTKSVLTGTKDAVSTGLTGAVNVAKGTVQTGVDTTKTVLTGTKDTVCSGVTSAVNVAKGAVQGGLDTTKSVVIGTKDTMSTGLTGAANVAKGAVQTGVDTAKTVLTGTKDTVTTGLVGAVNVAKGTVQTGMDTTKTVLTGTKDTIYSGVTSAVNVAKGAVQTGLKTTQNIATGTKNTFGSGVTSAVNVAKGAAQTGVDTAKTVLTGTKDTVTTGLMGAVNVAKGTVQTSVDTTKTVLTGTKDTVCSGVTGAANVAKGAIQGGLDTTKSVLTGTKDAVSTGLTGAVKLAKGTVQTGMDTTKTVLTGTKDAVCSGVTGAANVAKGAVQMGVDTAKTVLTGTKDTVCSGVTGAANVAKGAVQTGLKTTQNIATGTKNTLGSGVTGAAKVAKGAVQGGLDTTKSVLTGTKDAVSTGLTGAVNLAKGTVQTGVDTSKTVLTGTKDTVCSGVTGAVNVAKGTVQTGVDTAKTVLSGAKDAVTTGVTGAVNVAKGTVQTGVDASKAVLMGTKDTVFSGVTGAMSMAKGAVQGGLDTTKTVLTGTKDAVSAGLMGSGNVATGATHTGLSTFQNWLPSTPATSWGGLTSSRTTDNGGEQTALSPQEAPFSGISTPPDVLSVGPEPAWEAAATTKGLATDVATFTQGAAPGREDTGLLATTHGPEEAPRLAMLQNELEGLGDIFHPMNAEEQAQLAASQPGPKVLSAEQGSYFVRLGDLGPSFRQRAFEHAVSHLQHGQFQARDTLAQLQDCFRLIEKAQQAPEGQPRLDQGSGASAEDAAVQEERDAGVLSRVCGLLRQLHTAYSGLVSSLQGLPAELQQPVGRARHSLCELYGIVASAGSVEELPAERLVQSREGVHQAWQGLEQLLEGLQHNPPLSWLVGPFALPAGGQ [PLIN4]	0.21	52.4 °C	52.3 °C	-0.0221	1.29	2.31
MSAPSEEEEYARLVMEAQPEWLRAEVKRLSHELAETTREKIQAAEYGLAVLEEKHQLKLQFEELEVDYEAIRSEMEQLKEAFGQAHTNHKKVAADGESREESLIQESASKEQYYVRKVLELQTELKQLRNVLTNTQSENERLASVAQELKEINQNVEIQRGRLRDDIKEYKFREARLLQDYSELEEENISLQKQVSVLRQNQVEFEGLKHEIKRLEEETEYLNSQLEDAIRLKEISERQLEEALETLKTEREQKNSLRKELSHYMSINDSFYTSHLHVSLDGLKFSDDAAEPNNDAEALVNGFEHGGLAKLPLDNKTSTPKKEGLAPPSPSLVSDLLSELNISEIQKLKQQLMQMEREKAGLLATLQDTQKQLEHTRGSLSEQQEKVTRLTENLSALRRLQASKERQTALDNEKDRDSHEDGDYYEVDINGPEILACKYHVAVAEAGELREQLKALRSTHEAREAQHAEEKGRYEAEGQALTEKVSLLEKASRQDRELLARLEKELKKVSDVAGETQGSLSVAQDELVTFSEELANLYHHVCMCNNETPNRVMLDYYREGQGGAGRTSPGGRTSPEARGRRSPILLPKGLLAPEAGRADGGTGDSSPSPGSSLPSPLSDPRREPMNIYNLIAIIRDQIKHLQAAVDRTTELSRQRIASQELGPAVDKDKEALMEEILKLKSLLSTKREQITTLRTVLKANKQTAEVALANLKSKYENEKAMVTETMMKLRNELKALKEDAATFSSLRAMFATRCDEYITQLDEMQRQLAAAEDEKKTLNSLLRMAIQQKLALTQRLELLELDHEQTRRGRAKAAPKTKPATPSL [BICD2]	0.628	49.7 °C	49.1 °C	0.0849	-0.115	0.199
MSASVVSVISRFLEEYLSSTPQRLKLLDAYLLYILLTGALQFGYCLLVGTFPFNSFLSGFISCVGSFILAVCLRIQINPQNKADFQGISPERAFADFLFASTILHLVVMNFVG [DAD1]	-0.0329	54.5 °C	54.2 °C	-0.257	0.505	-0.552
